Where two headings read alike, the source gives them in different places.
What was measured:
[1] = human, cited from earlier work
Excerpt: Pharmacokinetic parameters representing rate of absorption (Ka), central clearance (CL), central volume (Vc), peripheral volume (Vp), distribution clearance (CLd), bioavailability (F) and lag- time (Tlag).

[2] = target: human GLP-1R (Homo sapiens, UniProt P43220); test: cAMP accumulation assay (HTRF) in stable CHO cell line expressing human GLP-1R; assay type: cell-based
Sequence of human GLP-1R (P43220 24-463): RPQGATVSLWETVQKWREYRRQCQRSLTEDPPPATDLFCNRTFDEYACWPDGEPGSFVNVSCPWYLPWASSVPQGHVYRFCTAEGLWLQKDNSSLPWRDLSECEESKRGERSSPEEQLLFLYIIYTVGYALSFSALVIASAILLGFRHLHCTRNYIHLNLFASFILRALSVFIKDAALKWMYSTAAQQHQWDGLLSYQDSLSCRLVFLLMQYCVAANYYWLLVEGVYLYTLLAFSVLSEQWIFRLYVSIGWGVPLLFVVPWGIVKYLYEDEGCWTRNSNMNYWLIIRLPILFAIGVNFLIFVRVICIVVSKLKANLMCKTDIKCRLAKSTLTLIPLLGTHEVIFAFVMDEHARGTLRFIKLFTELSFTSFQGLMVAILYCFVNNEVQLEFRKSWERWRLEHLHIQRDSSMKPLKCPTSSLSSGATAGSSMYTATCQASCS
Method: Cell-based cyclic adenosine monophosphate (cAMP) accumulation assays were used to measure in vitro potency for GLP-1RAs in a stable Chinese hamster ovary (CHO) cell line expressing human GLP-1R (generated at AstraZeneca) or EndoC-βH1 cells endogenously expressing the GLP-1R (Endocells, Paris, France) as previously described. In brief, test GLP-1RA serial dilutions were prepared using an ECHO® acoustic liquid handler (Beckman, High Wycombe, UK) to obtain an 11-point dose–response curve in assay buffer (Hanks’ balanced salt solution (HBSS)) supplemented with 25 mM of HEPES and 0.5 mM of 3-isobutyl-1-methylxanthine (IBMX). […] The EndoC-βH1 cell assay was performed in an assay buffer containing 0.1% BSA.
Following compound and cell incubation for 30 min, the level of cAMP accumulation was determined using a cAMP dynamic 2 HTRF (homogeneous time-resolved fluorescence) kit (Cisbio, Codolet, France), following the two-step protocol according to the manufacturer’s guidelines. Treated cells were incubated with anti-cAMP cryptate and cAMP-d2 in lysis buffer at room temperature for 1 h and read on an Envision plate reader (PerkinElmer, Waltham, MA, USA).

Row | Compound | lag-time Tlag ([1]; T2D, ref [7] (supplement references)) | bioavailability F ([1]; fraction, dulaglutide value at 1.5 mg, ref [4] dulaglutide, [5] semaglutide oral, [6] semaglutide sc, [7] liraglutide (supplement references)) | central clearance CL ([1]; population PK, T2D (semaglutide oral: T2D, obesity), ref [4] dulaglutide, [5] semaglutide oral, [6] semaglutide sc, [7] liraglutide (supplement references)) | EC50 ([2]; read-out: EC50 (pM) 0.1%, NSB = BSA, shift assay Table S1A, 0.1% BSA) | EC50 ([2]; read-out: EC50 (pM) 0.1%, NSB = OA, shift assay Table S1B, 0.1% ovalbumin) | EC50 ([2]; read-out: EC50 (pM) 0.3%, NSB = BSA, shift assay Table S1A, 0.3% BSA) | EC50 ([2]; read-out: EC50 (pM) 0.3%, NSB = OA, shift assay Table S1B, 0.3% ovalbumin) | EC50 ([2]; read-out: EC50 (pM) 1%, NSB = BSA, shift assay Table S1A, 1% BSA) | EC50 ([2]; read-out: EC50 (pM) 1%, NSB = OA, shift assay Table S1B, 1% ovalbumin) | EC50 ([2]; read-out: EC50 (pM) 3%, NSB = BSA, shift assay Table S1A, 3% BSA) | EC50 ([2]; read-out: EC50 (pM) 3%, NSB = OA, shift assay Table S1B, 3% ovalbumin) | bioavailability F ([1]; in vivo) | central clearance CL ([1]; in vivo) | central volume Vc ([1]; in vivo) | distribution clearance CLd ([1]; in vivo) | peripheral volume Vp ([1]; in vivo) | rate of absorption Ka ([1]; in vivo)
1 | CCCCCCCCCCCCCCCC(=O)N[C@@H](CCC(=O)NCCCC[C@H](NC(=O)[C@H](C)NC(=O)[C@H](C)NC(=O)[C@H](CCC(N)=O)NC(=O)CNC(=O)[C@H](CCC(=O)O)NC(=O)[C@H](CC(C)C)NC(=O)[C@H](Cc1ccc(O)cc1)NC(=O)[C@H](CO)NC(=O)[C@H](CO)NC(=O)[C@@H](NC(=O)[C@H](CC(=O)O)NC(=O)[C@H](CO)NC(=O)[C@@H](NC(=O)[C@H](Cc1ccccc1)NC(=O)[C@@H](NC(=O)CNC(=O)[C@H](CCC(=O)O)NC(=O)[C@H](C)NC(=O)[C@@H](N)Cc1cnc[nH]1)[C@@H](C)O)[C@@H](C)O)C(C)C)C(=O)N[C@@H](CCC(=O)O)C(=O)N[C@@H](Cc1ccccc1)C(=O)N[C@H](C(=O)N[C@@H](C)C(=O)N[C@@H](Cc1c[nH]c2ccccc12)C(=O)N[C@@H](CC(C)C)C(=O)N[C@H](C(=O)N[C@@H](CCCNC(=N)N)C(=O)NCC(=O)N[C@@H](CCCNC(=N)N)C(=O)NCC(=O)O)C(C)C)[C@@H](C)CC)C(=O)O [Liraglutide] | 6 h | 0.51 | 0.91 L/h |  |  |  |  |  |  |  |  |  |  |  |  |  | 
2 | Dulaglutide: a DPP-IV-protected GLP-1 analog covalently linked to a human IgG4-Fc heavy chain by a peptide linker |  |  |  | 9.07 pM | 46.4 pM | 10.8 pM | 34.1 pM | 12.1 pM | 30.7 pM | 9.7 pM | 26 pM | 0.47 | 0.0593 L/h | 2.25 L | 0.0201 L/h | 3.75 L | 0.00769 h⁻¹

— publication PMC11510446, “Establishing a Relationship between In Vitro Potency in Cell-Based Assays and Clinical Efficacious Concentrations for Approved GLP-1 Receptor Agonists” (Pharmaceutics, 2024)
